Laboratory results: paper PMC5668312, “Structural basis of katanin p60:p80 complex formation” (Scientific Reports, 2017)

Molecular target: T1, katanin p80 C-terminal domain (p80-CTD, aa 481-658 of mouse p80), 6xHis-tagged (mouse, UniProt Q8BG40 481-658)
T1 construct: katanin p80 subunit, mouse, C-terminal domain, residues 481-658; also called 6xHis-p80CTD; source: E. coli BL21(DE3), pET28a, co-expressed with p60-MIT, purified (IMAC, SEC); not shown: 6xHis, N-terminal, kept
Experiment: AUC; sedimentation velocity of the co-purified p60-MIT:p80-CTD complex, 300 nM to 50 μM, 20 °C, 42,000 rpm, 20 mM HEPES pH 7.4, 150 mM NaCl, 2 mM 2-mercaptoethanol; apparent Kd estimated
Conditions: both partners purified

T1 sequence (Q8BG40 481-658): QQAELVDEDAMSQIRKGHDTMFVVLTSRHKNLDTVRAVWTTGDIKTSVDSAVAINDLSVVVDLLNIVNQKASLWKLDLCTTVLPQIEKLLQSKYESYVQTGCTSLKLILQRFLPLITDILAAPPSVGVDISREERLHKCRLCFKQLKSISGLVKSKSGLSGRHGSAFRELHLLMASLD

B1: katanin p60 MIT domain (p60-MIT, aa 1-78 of mouse p60), wild type (domain or fragment, UniProt Q9WV86 1-78, looked up)
chain: MSLQMIVENVKLAREYALLGNYDSAMVYYQGVLDQMNKYLYSVKDTHLRQKWQQVWQEINVEAKQVKDIMKTLESFKL
notes: katanin p60 subunit, mouse, N-terminal MIT domain, residues 1-78; Co-purified with m2 as the p60-MIT:6xHis-p80CTD complex; source: E. coli BL21(DE3), pET28a, co-expressed with 6xHis-p80-CTD, purified (IMAC, SEC)
B1 was tested, and the “stoichiometry N” value was 1.
